Publication PMC6208404, “Calcium sensing by the STIM1 ER-luminal domain” (Nature Communications, 2018)

Biological target: the molecule itself
Assay: FRET or BRET; in vitro; purified protein randomly labelled with fluorescein (donor) and Alexa Fluor 594 (acceptor) at an engineered N-terminal cysteine; 250 nM protein, 22 °C, excitation 420 nm; Chelex-treated Ca2+-free buffer, FRET reduced as Ca2+ was added

B1: single-cysteine EFSAM-GrpE (CGG-EFSAM(58-209)-linker-GrpE(1-171)), labelled with fluorescein and/or Alexa Fluor 594 (other, mouse | Thermus thermophilus HB8)
chain: CGGSEDEKLSFEAVRNIHKLMDDDANGDVDVEESDEFLREDLNYHDPTVKHSTFHGEDKLISVEDLWKAWKSSEVYNWTVDEVIQWLITYVELPQYEETFRKLQLTGHAMPRLAVTNTTMTGTVLKMTDRSHRQKLQLKALDTVLFGPPLLTRHNLELSRANSSTLAAVTSGSELMEERNHENTLEKDLEAVGQEAQALEERLKAAEEELKGLKDKYLRLLADFDNYRKRMEEELKAREREGVLKALRALLPVLDDLDRALEFAEASPESIRQGVRAIRDGFFRILAGLGVEEVPGEGEAFDPRYHEAVGLLPGEPGKVAKVFQRGFRMGEALVRPARVAVGEEKR
modifications: fluorescein-5-maleimide or Alexa Fluor 594 C5 maleimide on the engineered N-terminal cysteine (random labelling, ~0.8-0.9:1 fluorophore to protein)
notes: engineered stretch with the single cysteine, immediately N-terminal to EFSAM residue 58; STIM1 ER-luminal EFSAM domain, mouse, residues 58-209; linker between EFSAM and GrpE; GrpE, Thermus thermophilus HB8, residues 1-171 (nucleotides 2222-2734 of GenBank AB012390.1); also called double-labelled EFSAM-GrpE; donor/acceptor-labelled EFSAM-GrpE; source: E. coli BL21, purified (Ni-NTA, Superdex 200 …)
binding result: binds
